Test system: neutrophil infiltration in COPD like inflammation
Experiment: Neutrophil infiltration in elastase-induced COPD model
Assay type: in vivo
Conditions: female BALB/c mice injected with elastase (5 micrograms per mouse); G-CSF 10 micrograms per mouse every second day for one week and pterostilbene 40 mg/kg intraperitoneally; assessed on days 0, 7 and 14
Experimental: Female BALB/c mice, 10 per group, where injected with elastase (5 micrograms per mouse) to induce COPD like inflammation. Mice were given G-CSF (10 micrograms per mouse) every second day for one week and pterostilbene (40 mg/kg) intraperitoneally. Mice were sacrificed on days 0, 7, and 14 and assessed for neutrophil infiltration.

B1: G-CSF: stem cell mobilizer; colony stimulating factor (protein, UniProt P09919 31-207, looked up)
Granulocyte …: TPLGPASSLPQSFLLKCLEQVRKIQGDGAALQEKLVSECATYKLCHPEELVLLGHSLGIPWAPLSSCPSQALQLAGCLSQLHSGLFLYQGLLQALEGISPELGPTLDTLQLDVADFATTIWQQMEELGMAPALQPTQGAMPAFASAFQRRAGGVLVASHLQSFLEVSYRVLRHLAQP
- neutrophil infiltration in COPD Model: reduction of neutrophil infiltration

— US20240082356A1, “TREATMENT OF COPD BY STIMULATION OF STEM CELL MOBILIZATION” (Therapeutic Solutions International, Inc., priority 2022, published 2024)
